# Results taken from US20260026500A1, “AGROCHEMICAL COMPOSITIONS” (BIOTALYS NV, priority 2022, published 2026).
# System: Botrytis cinerea
# Test: In vitro microtiter plate antifungal assay, confluence analysis (IncuCyte S3) of spore outgrowth
# Format: cell-based
# Excerpt: An “IC50 value”, “EC50”, “IC50”, “EC50” or “half maximal inhibitory concentration” as used herein interchangeably is a measure for the potency of a polypeptide or cell wall disrupting agent or compositions as described herein in inhibiting the growth of a fungal pathogen. In practice (also see example 1) the growth of a fungal pathogen is tracked by measuring the confluency of said fungal pathogen in for example a well of a 96-well plate or 384-well plate in the presence of a series of different concentrations of the tested polypeptide or cell wall disrupting agent or compositions as described herein. The confluency data at the time-point at which the non-treated or negative control reaches for example 90% saturation is then taken for each concentration of the polypeptide or cell wall disrupting agent or compositions as described herein. Said confluence values are then plotted against the log transformed concentration values yielding a sigmoidal curve. This sigmoid curve may serve to define an IC50 value. Where this IC50 is the concentration of the polypeptide or cell wall disrupting agent or compositions as described herein where the corresponding confluence value is 50% of the saturated value as estimated by the maximum of the sigmoidal function.
# The antifungal activity of VHHs, in combination with CWDEs, was assessed in an in vitro assay against the plant pathogenic fungus Botrytis cinerea. The current in vitro assay is a standard microtiter plate-based antifungal assay against Botrytis cinerea based on confluence analysis using an IncuCyte S3 System tracking the outgrowth of fungal spores overtime until saturation is reached. VHHs and CWDEs were assessed in serial dilutions, alone and in combination. The CWDEs were mixed with one VHH at a fixed ratio and serially diluted in 10 mM sterile HEPES buffer pH 7. […] Confluence was calculated with IncuCyte software version 2021C (Essen BioScience Inc.). […]
# The IC50 value for both the CWDE and VHH were determined separately (FIGS. 1A and 1B, top panel). […]
molecule,measurement,setting,value
"VHH-1: VHH, SEQ ID NO 1; taken from WO2021198396 (protein, Synthetic VHH sequence.) VHH: DVQLVESGGGLVQAGGSLRLSCAASRSIFSINAMDWYRQAPGKQREWVAGITRGGTTKYADSVKGRFTISRDNAKKKVYLQMNSLKPEDTAVYYCNVLRGEQPWTRDYWGQGTQVTVSS","IC50 value, determined separately","VHH or CWDE alone, confluence of Botrytis cinerea, 4-parameter log-logistic fit, CWDE protein concentration overestimated",105.2 mg/L
same,"% change, additive effect of component, buffer normalized to 100%","dose regime VHH-1 at 16.7 mg/L and CWDE at 25 mg/L, protease inhibitor 0.06 X",20.5%
same,"Estimate (% confluence), additive effect of component, difference from buffer","dose regime VHH-1 at 16.7 mg/L and CWDE at 25 mg/L, protease inhibitor 0.06 X, buffer 55.3",11.3 % confluence
